Measured values as given in patent US20110177071A1 (PERSEID THERAPEUTICS, published 2011).

T1: human CD80-murine Ig fusion protein (human)
T1 construct: Bought (Ancell #510-820); also called hCD80-mIg; human CD80-murine IgG
T1 chain: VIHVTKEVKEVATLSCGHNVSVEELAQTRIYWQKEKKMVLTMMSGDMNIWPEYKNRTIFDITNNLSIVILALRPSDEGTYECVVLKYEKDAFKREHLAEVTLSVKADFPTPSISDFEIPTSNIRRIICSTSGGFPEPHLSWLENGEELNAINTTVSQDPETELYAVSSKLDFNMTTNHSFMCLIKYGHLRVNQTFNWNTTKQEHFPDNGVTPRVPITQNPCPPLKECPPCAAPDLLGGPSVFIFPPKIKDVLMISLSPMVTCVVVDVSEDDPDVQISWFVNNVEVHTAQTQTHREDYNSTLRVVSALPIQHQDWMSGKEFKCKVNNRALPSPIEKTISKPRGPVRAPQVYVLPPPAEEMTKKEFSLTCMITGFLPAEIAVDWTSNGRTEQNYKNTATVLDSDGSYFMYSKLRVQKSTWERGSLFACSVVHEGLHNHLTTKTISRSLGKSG

T2: full-length human CD86 on HEK293 cells (human, UniProt P42081 24-329)
T2 sequence: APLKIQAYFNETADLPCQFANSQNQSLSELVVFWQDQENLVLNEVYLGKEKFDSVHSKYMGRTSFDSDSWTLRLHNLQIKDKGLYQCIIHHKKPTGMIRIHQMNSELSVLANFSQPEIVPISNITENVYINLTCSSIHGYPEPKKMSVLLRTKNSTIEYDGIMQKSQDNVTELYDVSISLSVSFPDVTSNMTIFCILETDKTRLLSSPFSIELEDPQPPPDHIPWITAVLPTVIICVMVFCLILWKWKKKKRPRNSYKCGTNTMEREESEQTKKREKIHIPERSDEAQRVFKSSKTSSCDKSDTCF

T3: monomeric hCD86 ECD (papain-digested hCD86-mIg) (human, UniProt P42081 24-243)
T3 construct: also called monomeric hCD86-mIg ligand; monomeric CD86 ECD
T3 chain: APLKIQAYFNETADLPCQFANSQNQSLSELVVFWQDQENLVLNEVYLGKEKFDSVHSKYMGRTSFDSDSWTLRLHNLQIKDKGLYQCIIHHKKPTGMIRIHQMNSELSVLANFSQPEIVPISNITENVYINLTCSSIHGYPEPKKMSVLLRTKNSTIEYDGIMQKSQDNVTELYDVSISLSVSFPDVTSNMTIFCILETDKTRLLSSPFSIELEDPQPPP

T4: human CD86-murine Ig fusion protein (human)
T4 construct: Bought (Ancell #509-820); also called hCD86-mIg
T4 chain: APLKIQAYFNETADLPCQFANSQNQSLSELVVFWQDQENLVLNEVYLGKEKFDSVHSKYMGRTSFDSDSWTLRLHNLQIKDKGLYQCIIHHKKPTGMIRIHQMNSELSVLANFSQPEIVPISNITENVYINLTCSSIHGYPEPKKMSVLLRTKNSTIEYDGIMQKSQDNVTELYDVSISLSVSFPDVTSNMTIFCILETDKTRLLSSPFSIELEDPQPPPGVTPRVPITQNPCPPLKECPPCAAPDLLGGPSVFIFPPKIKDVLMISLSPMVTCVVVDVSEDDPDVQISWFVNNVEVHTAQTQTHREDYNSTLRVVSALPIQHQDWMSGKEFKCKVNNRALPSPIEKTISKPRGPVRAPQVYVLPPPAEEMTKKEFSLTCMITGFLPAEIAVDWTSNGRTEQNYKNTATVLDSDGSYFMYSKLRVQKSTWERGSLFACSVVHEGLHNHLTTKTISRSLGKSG


How the values were obtained:
[1] = target: T1, human CD80-murine Ig fusion protein; assay: SPR Biacore, hCD80-mIg captured
[2] = target: T2, full-length human CD86 on HEK293 cells; assay: cell-based or functional assay
[3] = target: T3, monomeric hCD86 ECD (papain-digested …); assay: SPR Biacore, fusion protein captured, monomeric hCD86 ECD in flow
Protocol: Regeneration between cycles was performed by 3 min incubation with 10 mM glycine buffer (pH 1.7) at 30 μl/min.
For kinetic analysis, data from monomeric binding assays were selected as described above except that association data selection began and ended 5 s from the injection start and stop times, and dissociation data selection started 5 s after the injection stop time, and typically included 1-60 s of the dissociation period. Such data were also analyzed for steady state equilibrium affinities using the BIAevaluation software. Steady state binding levels for each concentration (Responseeq (“Req”) values) were averaged over 5-20 s range near the end of the sample injection using the BIAevaluation “General fit: average” function.

[4] = target: T4, human CD86-murine Ig fusion protein; assay: SPR Biacore, hCD86-mIg captured

Row | Kd [1] | Mean IC50 (nM), CD4+ T cell proliferation [2] | Binding Affinity (Relative to LEA29Y-Ig) [3] | Kd [3] | Binding Avidity (Relative to Orencia) [4] | Kd [4] | Binding Avidity (Relative to Orencia) [1] | Binder
1 | 0.439 to 1.75 nM | 0.04 nM | > 5 fold | < 336 nM | > 40 fold | < 0.131 nM |  | D3-14-IgG2 (Fc fusion) MHVAQPAVVLASSRGIASFVCEYESPGKANEIRVTVLRQADSQVTEVCAMTYMKGDELTFLDDPSCTGTFSGNQVNLTIQGLRAADTGLYICKVELMYPPPYYLGIGNGTQIYVIDPEPCPDSDERKCCVECPPCPAPPVAGPSVFLFPPKPKDTLMISRTPEVTCVVVDVSHEDPEVQFNWYVDGVEVHNAKTKPREEQFNSTFRVVSVLTVVHQDWLNGKEYKCKVSNKGLPAPIEKTISKTKGQPREPQVYTLPPSREEMTKNQVSLTCLVKGFYPSDIAVEWESNGQPENNYKTTPPMLDSDGSFFLYSKLTVDKSRWQQGNVFSCSVMHEALHNHYTQKSLSLSPG
2 | 0.439 to 1.75 nM | 0.03 nM | > 5 fold | < 336 nM | > 40 fold | < 0.131 nM |  | D3-11-IgG2 (Fc fusion) MHVAQPAVVLASSRGIASFVCEYESPGKANEIRVTVLRQAGSQVTEVCAMTYMKGDELTFLDDPSCTGTFSGNQVNLTIQGLRAMDTGLYICKVELMYPPPYYLGFGNGTQIYVIDPEPCPDSDERKCCVECPPCPAPPVAGPSVFLFPPKPKDTLMISRTPEVTCVVVDVSHEDPEVQFNWYVDGVEVHNAKTKPREEQFNSTFRVVSVLTVVHQDWLNGKEYKCKVSNKGLPAPIEKTISKTKGQPREPQVYTLPPSREEMTKNQVSLTCLVKGFYPSDIAVEWESNGQPENNYKTTPPMLDSDGSFFLYSKLTVDKSRWQQGNVFSCSVMHEALHNHYTQKSLSLSPG
3 | < 0.439 nM | 0.03 nM |  |  | > 40 fold | < 0.131 nM | > 2 fold | D3-75-IgG2 (Fc fusion) MHVAQPAVVLASSRGIASFVCEYESPGKANEVRVTVLRQADSQVTEVCAMTYMKENELTFLDDPSCTGTFSGNQVNLTIQGLRAMDTGLYICKVELMYPPPYYLGIGNGTQIYVIDPEPCPDSDERKCCVECPPCPAPPVAGPSVFLFPPKPKDTLMISRTPEVTCVVVDVSHEDPEVQFNWYVDGVEVHNAKTKPREEQFNSTFRVVSVLTVVHQDWLNGKEYKCKVSNKGLPAPIEKTISKTKGQPREPQVYTLPPSREEMTKNQVSLTCLVKGFYPSDIAVEWESNGQPENNYKTTPPMLDSDGSFFLYSKLTVDKSRWQQGNVFSCSVMHEALHNHYTQKSLSLSPG

The next lines start with the binder.

Row | Binder | Kd [1] | Mean IC50 (nM), CD4+ T cell proliferation [2] | Binding Affinity (Relative to LEA29Y-Ig) [3] | Kd [3] | Binding Avidity (Relative to Orencia) [4] | Kd [4] | Binding Avidity (Relative to Orencia) [1]
4 | D3-17-IgG2 (Fc fusion) MHVAQPAVVLASSRGIASFVCEYESPGKANEIRVTVLRQADSQVTEVCAMTYMKGDELTFLDDPSCTGTFSGNQVNLTIQGLRAMDTGLYICKVELMYPPPYYLGIGNGTQIYVIDPEPCPDSDERKCCVECPPCPAPPVAGPSVFLFPPKPKDTLMISRTPEVTCVVVDVSHEDPEVQFNWYVDGVEVHNAKTKPREEQFNSTFRVVSVLTVVHQDWLNGKEYKCKVSNKGLPAPIEKTISKTKGQPREPQVYTLPPSREEMTKNQVSLTCLVKGFYPSDIAVEWESNGQPENNYKTTPPMLDSDGSFFLYSKLTVDKSRWQQGNVFSCSVMHEALHNHYTQKSLSLSPG | 0.439 to 1.75 nM | 0.03 nM | > 5 fold | < 336 nM | > 40 fold | < 0.131 nM | 
5 | D3-4-IgG2 (Fc fusion, also called D3-04-IgG2) MHVAQPAVVLASSRGIASFVCEYESPGKANEIRVTVLRQADSQVTEVCAMTYMKGDELTFLDDPSCTGTFSGNQVNLTIQGLRAADTGLYICKVELMYPPPYYLGFGNGTQIYVIDPEPCPDSDERKCCVECPPCPAPPVAGPSVFLFPPKPKDTLMISRTPEVTCVVVDVSHEDPEVQFNWYVDGVEVHNAKTKPREEQFNSTFRVVSVLTVVHQDWLNGKEYKCKVSNKGLPAPIEKTISKTKGQPREPQVYTLPPSREEMTKNQVSLTCLVKGFYPSDIAVEWESNGQPENNYKTTPPMLDSDGSFFLYSKLTVDKSRWQQGNVFSCSVMHEALHNHYTQKSLSLSPG | 0.439 to 1.75 nM | 0.03 nM | > 5 fold | < 336 nM | > 40 fold | < 0.131 nM | 
